Eleven molecules from PMC4983110, “Shared and distinct functions of the pseudokinase CORYNE (CRN) in shoot and root stem cell maintenance of Arabidopsis” (Journal of Experimental Botany, 2016) can be followed below.

What all share (experiment): FRET or BRET; FRET-APB (acceptor photobleaching) in transiently transformed Nicotiana benthamiana cells; GFP donor, mCherry acceptor bleached in a region along the plasma membrane; apparent FRET efficiency as donor-dequenching in %
In test [1] the target is CLAVATA2 (CLV2), wild type, tagged with mCherry (Arabidopsis thaliana) (UniProt O80809).
The target in test [2] is T1, CLAVATA2 (CLV2), wild type, tagged with mCherry (Arabidopsis thaliana, UniProt O80809 26-720).
T1 construct: CLAVATA2 (CLV2), Arabidopsis thaliana, LRR receptor-like protein, wild type, from cDNA; also called CLV2-mCherry; source: N. benthamiana, transiently expressed from an inducible vector, in living cells
T1 sequence (looked up): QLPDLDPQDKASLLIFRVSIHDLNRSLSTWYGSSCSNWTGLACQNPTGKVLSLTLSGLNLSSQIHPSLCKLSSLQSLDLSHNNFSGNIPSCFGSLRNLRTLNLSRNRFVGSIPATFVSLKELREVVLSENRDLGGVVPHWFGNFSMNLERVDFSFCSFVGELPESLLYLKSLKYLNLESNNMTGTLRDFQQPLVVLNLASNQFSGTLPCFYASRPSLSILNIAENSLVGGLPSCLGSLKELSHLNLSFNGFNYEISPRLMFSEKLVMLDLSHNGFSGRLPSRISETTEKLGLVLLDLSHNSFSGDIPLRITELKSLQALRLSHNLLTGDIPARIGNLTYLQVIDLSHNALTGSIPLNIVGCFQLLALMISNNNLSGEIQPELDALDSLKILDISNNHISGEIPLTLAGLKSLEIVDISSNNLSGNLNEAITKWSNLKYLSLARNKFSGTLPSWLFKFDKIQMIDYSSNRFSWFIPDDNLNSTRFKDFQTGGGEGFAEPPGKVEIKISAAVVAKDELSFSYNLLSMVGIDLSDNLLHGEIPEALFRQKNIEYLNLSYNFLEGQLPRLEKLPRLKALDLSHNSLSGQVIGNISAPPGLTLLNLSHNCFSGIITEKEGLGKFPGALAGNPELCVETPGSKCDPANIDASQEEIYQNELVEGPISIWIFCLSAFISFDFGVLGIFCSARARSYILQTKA
To be noted: partners not purified.

The target in test [3] is T2, CLAVATA2 (CLV2), wild type, tagged with GFP (Arabidopsis thaliana, UniProt O80809 26-720).
T2 construct: CLAVATA2 (CLV2), Arabidopsis thaliana, LRR receptor-like protein, wild type, from cDNA; also called CLV2-GFP; source: N. benthamiana, transiently expressed from an inducible vector, in living cells
T2 sequence (looked up): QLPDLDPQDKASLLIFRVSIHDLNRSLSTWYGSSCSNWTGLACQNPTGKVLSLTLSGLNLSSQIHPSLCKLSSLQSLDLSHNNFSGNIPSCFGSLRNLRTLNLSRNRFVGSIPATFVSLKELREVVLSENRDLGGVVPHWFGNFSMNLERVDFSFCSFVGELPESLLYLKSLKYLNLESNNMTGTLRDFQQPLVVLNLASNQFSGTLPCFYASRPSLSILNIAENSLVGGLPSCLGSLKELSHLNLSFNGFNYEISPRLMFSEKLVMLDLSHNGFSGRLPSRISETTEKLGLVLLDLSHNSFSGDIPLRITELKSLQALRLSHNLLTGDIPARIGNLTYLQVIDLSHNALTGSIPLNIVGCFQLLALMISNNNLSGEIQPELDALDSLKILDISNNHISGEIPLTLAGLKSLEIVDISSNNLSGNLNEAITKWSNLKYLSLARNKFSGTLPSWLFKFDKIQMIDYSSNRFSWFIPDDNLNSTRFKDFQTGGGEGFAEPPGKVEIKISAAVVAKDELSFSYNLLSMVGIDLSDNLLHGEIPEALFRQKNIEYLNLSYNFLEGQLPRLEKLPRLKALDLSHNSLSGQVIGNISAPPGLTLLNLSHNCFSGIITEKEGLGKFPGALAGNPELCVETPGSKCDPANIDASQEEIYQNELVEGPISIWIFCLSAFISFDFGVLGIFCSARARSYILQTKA
To be noted: partners not purified.

Test [4] concerns the target chimeric protein of the CLV2 LRR-receptor and its TMD fused to the CRN kinase domain, tagged with GFP (Arabidopsis thaliana) (UniProt Q9LYU7).
Test [5] has as its target CLV2 with the first conserved arginine of the RxR motif replaced with an alanine, tagged with GFP (Arabidopsis thaliana) (UniProt O80809).
Test [6] addresses CLV2 with the entire RxR motif deleted, tagged with GFP (Arabidopsis thaliana) (UniProt O80809).

Turning to “CRN lacking the N-terminal, distal part of the extracellular domain, tagged with GFP (from UniProt Q9LYU7 34-62) (natural protein)”, the D-d (%) (donor-dequenching, apparent FRET efficiency) in test [1] was 11.2%.
In the case of “chimera of CRN in which the kinase is replaced with the kinase domain of CLV1, tagged with GFP (from UniProt Q9SYQ8 692-968)”, in test [1], the D-d (%) (donor-dequenching, apparent FRET efficiency) turned out to be 10.3%.
As for “CRN lacking the proximal part of the extracellular domain adjacent to the TMD, tagged with GFP (from UniProt Q9LYU7 34-62) (natural protein)”, in test [1], the D-d (%) (donor-dequenching, apparent FRET efficiency) came out at 10.5%.
With “CRN lacking the entire extracellular domain, tagged with GFP (from UniProt Q9LYU7 34-62) (natural protein)”, the D-d (%) (donor-dequenching, apparent FRET efficiency) in test [1] came out at 7.2%.
In the case of “shortened CRN protein lacking the kinase, tagged with GFP (domain or fragment)”, the D-d (%) (donor-dequenching, apparent FRET efficiency) in test [1] came to 24.5%.

B1: crn-3 variant of CRN (translational stop at Q296, kinase domain shortened by one third), tagged with GFP (domain or fragment, Arabidopsis thaliana, UniProt Q9LYU7 34-295, looked up)
chain: TSCRRRTVKHLSTTSTSSTPLESRITSKVIVISIVSGILTGLVSALVLAFLVRSIVKFMKQTPILKGPVVFSPKITPKSLHAALSNGIQLLGSDLNGKYYKMVLDNGLVVAVKRLGSLEGVGSPESSSSKSVKRRLQKELELLAGLRHRNLMSLRAYVRESDEFSLVYDYMPNGSLEDVMNKVRTKEVELGWEIRLRVAVGIVKGLQYLHFSCETQILHYNLKPTNVMLDSEFEPRLADCGLAKIMPSSHTAVSCYSAPESS
notes: signal peptide in the construct; CRN, Arabidopsis thaliana, truncated by the point mutation at Q296 of the EMS-induced crn-3 allele, which causes a translational stop; also called crn-3-GFP; source: N. benthamiana, transiently expressed, in living cells
For B1, the “D-d (%) (donor-dequenching, apparent FRET efficiency)” value in test [2] was determined as 18.3%.

B2: CORYNE (CRN), wild type, tagged with mCherry (natural protein, Arabidopsis thaliana, UniProt Q9LYU7 34-401, looked up)
chain: TSCRRRTVKHLSTTSTSSTPLESRITSKVIVISIVSGILTGLVSALVLAFLVRSIVKFMKQTPILKGPVVFSPKITPKSLHAALSNGIQLLGSDLNGKYYKMVLDNGLVVAVKRLGSLEGVGSPESSSSKSVKRRLQKELELLAGLRHRNLMSLRAYVRESDEFSLVYDYMPNGSLEDVMNKVRTKEVELGWEIRLRVAVGIVKGLQYLHFSCETQILHYNLKPTNVMLDSEFEPRLADCGLAKIMPSSHTAVSCYSAPESSQSNRYTDKSDIFSFGMILGVLLTGRDPTHPFCEESASGGSLGQWLKHLQQSGEAREALDKTILGEEVEEDEMLMALRITIICLSDFPADRPSSDELVHMLTQLHSF
notes: CORYNE (CRN), Arabidopsis thaliana, wild type, from cDNA; the longer splice variant, not gene model AT5G13290.1; also called CRN-mCherry; source: N. benthamiana, transiently expressed from an inducible vector, in living cells
For B2, the “D-d (%) (donor-dequenching, apparent FRET efficiency)” value in test [3] worked out at 11.7%; in test [4] it was 5.7%; in test [5] it was 14.2%; in test [6] it was 11.4%.

B3: CORYNE (CRN), wild type, tagged with GFP (natural protein, Arabidopsis thaliana, UniProt Q9LYU7 34-401, looked up)
chain: TSCRRRTVKHLSTTSTSSTPLESRITSKVIVISIVSGILTGLVSALVLAFLVRSIVKFMKQTPILKGPVVFSPKITPKSLHAALSNGIQLLGSDLNGKYYKMVLDNGLVVAVKRLGSLEGVGSPESSSSKSVKRRLQKELELLAGLRHRNLMSLRAYVRESDEFSLVYDYMPNGSLEDVMNKVRTKEVELGWEIRLRVAVGIVKGLQYLHFSCETQILHYNLKPTNVMLDSEFEPRLADCGLAKIMPSSHTAVSCYSAPESSQSNRYTDKSDIFSFGMILGVLLTGRDPTHPFCEESASGGSLGQWLKHLQQSGEAREALDKTILGEEVEEDEMLMALRITIICLSDFPADRPSSDELVHMLTQLHSF
notes: CORYNE (CRN), Arabidopsis thaliana, wild type, from cDNA; Residue numbers (G70, S156, Q296) count on the longer splice variant, not on gene model AT5G13290.1, on which S156 is S131; also called CRN-GFP; source: N. benthamiana, transiently expressed from an inducible vector, in living cells
For B3, the “D-d (%) (donor-dequenching, apparent FRET efficiency)” value in test [2] was 10.5%.

B4: CRN with S156A (phosphomute variant), tagged with GFP (natural protein, Arabidopsis thaliana, UniProt Q9LYU7 34-401, looked up)
chain: TSCRRRTVKHLSTTSTSSTPLESRITSKVIVISIVSGILTGLVSALVLAFLVRSIVKFMKQTPILKGPVVFSPKITPKSLHAALSNGIQLLGSDLNGKYYKMVLDNGLVVAVKRLGSLEGVGAPESSSSKSVKRRLQKELELLAGLRHRNLMSLRAYVRESDEFSLVYDYMPNGSLEDVMNKVRTKEVELGWEIRLRVAVGIVKGLQYLHFSCETQILHYNLKPTNVMLDSEFEPRLADCGLAKIMPSSHTAVSCYSAPESSQSNRYTDKSDIFSFGMILGVLLTGRDPTHPFCEESASGGSLGQWLKHLQQSGEAREALDKTILGEEVEEDEMLMALRITIICLSDFPADRPSSDELVHMLTQLHSF
notes: CRN, Arabidopsis thaliana, serine 156 replaced with alanine; S156 is S131 on gene model AT5G13290.1 (the shorter splice variant); also called CR(SA)-GFP; CR(SA); source: N. benthamiana, transiently expressed, in living cells
For the molecule B4, in test [2], the “D-d (%) (donor-dequenching, apparent FRET efficiency)” value turned out to be 13.5%.

B5: crn-1 variant of CRN (G70E in the predicted TMD), tagged with GFP (natural protein, Arabidopsis thaliana, UniProt Q9LYU7 34-401, looked up)
chain: TSCRRRTVKHLSTTSTSSTPLESRITSKVIVISIVSEILTGLVSALVLAFLVRSIVKFMKQTPILKGPVVFSPKITPKSLHAALSNGIQLLGSDLNGKYYKMVLDNGLVVAVKRLGSLEGVGSPESSSSKSVKRRLQKELELLAGLRHRNLMSLRAYVRESDEFSLVYDYMPNGSLEDVMNKVRTKEVELGWEIRLRVAVGIVKGLQYLHFSCETQILHYNLKPTNVMLDSEFEPRLADCGLAKIMPSSHTAVSCYSAPESSQSNRYTDKSDIFSFGMILGVLLTGRDPTHPFCEESASGGSLGQWLKHLQQSGEAREALDKTILGEEVEEDEMLMALRITIICLSDFPADRPSSDELVHMLTQLHSF
notes: CRN, Arabidopsis thaliana, with the amino acid exchange G70E of the EMS-induced crn-1 allele in the predicted TMD; also called crn-1-GFP; source: N. benthamiana, transiently expressed, in living cells
Consider B5, for which, in test [2], the “D-d (%) (donor-dequenching, apparent FRET efficiency)” value was 5.2%.

B6: CRN with S156D (putative phosphomimetic variant), tagged with GFP (natural protein, Arabidopsis thaliana, UniProt Q9LYU7 34-401, looked up)
chain: TSCRRRTVKHLSTTSTSSTPLESRITSKVIVISIVSGILTGLVSALVLAFLVRSIVKFMKQTPILKGPVVFSPKITPKSLHAALSNGIQLLGSDLNGKYYKMVLDNGLVVAVKRLGSLEGVGDPESSSSKSVKRRLQKELELLAGLRHRNLMSLRAYVRESDEFSLVYDYMPNGSLEDVMNKVRTKEVELGWEIRLRVAVGIVKGLQYLHFSCETQILHYNLKPTNVMLDSEFEPRLADCGLAKIMPSSHTAVSCYSAPESSQSNRYTDKSDIFSFGMILGVLLTGRDPTHPFCEESASGGSLGQWLKHLQQSGEAREALDKTILGEEVEEDEMLMALRITIICLSDFPADRPSSDELVHMLTQLHSF
notes: CRN, Arabidopsis thaliana, serine 156 replaced with aspartic acid; S156 is S131 on gene model AT5G13290.1 (the shorter splice variant); also called CR(SD)-GFP; CR(SD); source: N. benthamiana, transiently expressed, in living cells
In the case of B6, the “D-d (%) (donor-dequenching, apparent FRET efficiency)” value in test [2] is 12.2%.
